Reference: publication PMC9482650, “Quantitative fragmentomics allow affinity mapping of interactomes” (Nature Communications, 2022)

How the values were obtained:
Experiment in all cases: holdup assay
Design in all cases: key: below the threshold = too weak to quantify, mostly under pKd 3.1 to 4
Settings in all cases: plain residues with an end cap or a label only (N-terminal biotin on a linker: ado-ado)
GRIP2_4, Q9C0E4 = target: GRIP2_4, Q9C0E4
LIMK2, P53671 = target: LIMK2, P53671
PDZD7_3, Q9H5P4 = target: T1, PDZD7_3, Q9H5P4
T1 sequence (Q9H5P4 857-944, limits assumed, looked up): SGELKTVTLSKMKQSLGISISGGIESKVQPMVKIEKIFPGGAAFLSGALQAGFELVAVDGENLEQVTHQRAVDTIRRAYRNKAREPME

GRIP2_6, Q9C0E4 = target: GRIP2_6, Q9C0E4
Chain of GRIP2_6, Q9C0E4 (Q9C0E4 648-740): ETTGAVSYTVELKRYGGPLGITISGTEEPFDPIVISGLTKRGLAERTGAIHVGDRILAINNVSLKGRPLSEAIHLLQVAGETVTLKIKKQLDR

MAGI2_4, Q86UL8 = target: MAGI2_4, Q86UL8
Chain of MAGI2_4, Q86UL8 (Q86UL8 772-865): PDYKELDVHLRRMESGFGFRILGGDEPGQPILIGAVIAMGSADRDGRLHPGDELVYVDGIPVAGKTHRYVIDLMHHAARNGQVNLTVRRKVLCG

TJP3_3, O95049 = target: T2, TJP3_3, O95049
T2 sequence (O95049 375-456, limits assumed, looked up): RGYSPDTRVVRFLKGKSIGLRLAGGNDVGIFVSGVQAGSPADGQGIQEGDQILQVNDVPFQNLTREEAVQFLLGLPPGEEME

MPP2, Q14168 = target: T3, MPP2, Q14168
T3 sequence (Q14168 180-250, limits assumed, looked up): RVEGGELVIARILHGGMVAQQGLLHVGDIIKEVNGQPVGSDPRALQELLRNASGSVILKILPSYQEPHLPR

MPDZ_12, O75970 = target: T4, MPDZ_12, O75970
T4 sequence (O75970 1857-1958, limits assumed, looked up): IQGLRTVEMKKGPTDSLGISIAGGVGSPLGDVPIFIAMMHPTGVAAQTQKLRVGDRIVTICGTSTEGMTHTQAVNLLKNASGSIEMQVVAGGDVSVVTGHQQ

TJP1_3, Q07157 = target: TJP1_3, Q07157
Chain of TJP1_3, Q07157 (Q07157 416-512): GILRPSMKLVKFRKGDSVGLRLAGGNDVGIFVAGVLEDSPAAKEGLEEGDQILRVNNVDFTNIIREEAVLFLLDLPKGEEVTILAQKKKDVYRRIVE

MAGI3_2, Q5TCQ9 = target: MAGI3_2, Q5TCQ9
Chain of MAGI3_2, Q5TCQ9 (Q5TCQ9 398-503): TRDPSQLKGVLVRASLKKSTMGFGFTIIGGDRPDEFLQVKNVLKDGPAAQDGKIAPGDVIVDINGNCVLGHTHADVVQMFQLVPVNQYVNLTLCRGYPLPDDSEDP

LNX2_2, Q8N448 = target: T5, LNX2_2, Q8N448
T5 sequence (Q8N448 334-432, limits assumed, looked up): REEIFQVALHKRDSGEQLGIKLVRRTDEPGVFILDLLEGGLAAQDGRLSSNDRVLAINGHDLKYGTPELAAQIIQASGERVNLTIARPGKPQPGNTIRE

DFNB31_2, Q9P202 = target: T6, DFNB31_2, Q9P202
T6 sequence (Q9P202 274-371, limits assumed, looked up): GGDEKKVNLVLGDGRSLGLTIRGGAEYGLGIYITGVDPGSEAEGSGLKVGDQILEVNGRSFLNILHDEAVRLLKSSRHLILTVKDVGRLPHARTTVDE

GRIP2_3, Q9C0E4 = target: GRIP2_3, Q9C0E4
Chain of GRIP2_3, Q9C0E4 (Q9C0E4 238-339): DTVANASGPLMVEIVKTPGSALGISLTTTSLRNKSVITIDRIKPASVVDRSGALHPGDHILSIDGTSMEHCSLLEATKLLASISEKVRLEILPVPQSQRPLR

MAGI2_6, Q86UL8 = target: MAGI2_6, Q86UL8
Chain of MAGI2_6, Q86UL8 (Q86UL8 1141-1229): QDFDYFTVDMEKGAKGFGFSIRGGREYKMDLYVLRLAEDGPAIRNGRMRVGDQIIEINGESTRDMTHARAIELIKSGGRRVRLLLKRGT

CASK, O14936 = target: CASK, O14936
Chain of CASK, O14936 (O14936 487-570): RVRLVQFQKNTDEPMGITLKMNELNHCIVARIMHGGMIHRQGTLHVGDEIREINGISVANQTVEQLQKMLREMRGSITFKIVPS

DLG3_3, Q92796 = target: T7, DLG3_3, Q92796
T7 sequence (Q92796 374-475, limits assumed, looked up): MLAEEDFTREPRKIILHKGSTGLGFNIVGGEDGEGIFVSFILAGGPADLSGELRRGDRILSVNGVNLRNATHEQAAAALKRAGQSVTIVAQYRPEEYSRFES

GRIP2_5, Q9C0E4 = target: GRIP2_5, Q9C0E4
Chain of GRIP2_5, Q9C0E4 (Q9C0E4 544-642): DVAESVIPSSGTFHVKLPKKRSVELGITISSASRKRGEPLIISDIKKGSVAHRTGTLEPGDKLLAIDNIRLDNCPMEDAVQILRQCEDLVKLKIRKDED

APBA2_2, Q99767 = target: T8, APBA2_2, Q99767
T8 sequence (Q99767 654-744, limits assumed, looked up): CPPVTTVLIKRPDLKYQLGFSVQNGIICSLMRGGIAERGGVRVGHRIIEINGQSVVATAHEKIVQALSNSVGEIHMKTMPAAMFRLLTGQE

CARD11, Q9BXL7 = target: T9, CARD11, Q9BXL7
T9 sequence (Q9BXL7 662-765, limits assumed, looked up): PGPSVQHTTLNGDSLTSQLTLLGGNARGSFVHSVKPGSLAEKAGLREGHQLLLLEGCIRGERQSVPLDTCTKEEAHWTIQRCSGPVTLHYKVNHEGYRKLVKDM

FRMPD2_3, Q68DX3 = target: FRMPD2_3, Q68DX3
Chain of FRMPD2_3, Q68DX3 (Q68DX3 1073-1166): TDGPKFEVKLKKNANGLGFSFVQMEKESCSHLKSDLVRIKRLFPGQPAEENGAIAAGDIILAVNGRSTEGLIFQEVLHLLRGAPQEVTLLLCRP

SHANK1, Q9Y566 = target: T10, SHANK1, Q9Y566
T10 sequence (Q9Y566 658-767, limits assumed, looked up): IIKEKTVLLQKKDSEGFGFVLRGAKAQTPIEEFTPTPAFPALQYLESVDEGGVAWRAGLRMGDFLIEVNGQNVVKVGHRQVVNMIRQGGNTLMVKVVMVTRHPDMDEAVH

DLG3_2, Q92796 = target: T11, DLG3_2, Q92796
T11 sequence (Q92796 221-321, limits assumed, looked up): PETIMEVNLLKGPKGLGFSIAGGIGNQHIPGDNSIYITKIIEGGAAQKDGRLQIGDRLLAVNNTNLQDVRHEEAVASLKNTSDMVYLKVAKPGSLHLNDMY

Inadl_1, Q8NI35 = target: Inadl_1, Q8NI35
Chain of Inadl_1, Q8NI35 (Q8NI35 113-229): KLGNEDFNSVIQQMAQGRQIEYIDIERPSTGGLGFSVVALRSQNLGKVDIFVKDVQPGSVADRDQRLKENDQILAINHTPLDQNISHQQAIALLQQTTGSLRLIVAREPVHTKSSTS

DLG4_1, P78352 = target: DLG4_1, P78352
Chain of DLG4_1, P78352 (P78352 62-152): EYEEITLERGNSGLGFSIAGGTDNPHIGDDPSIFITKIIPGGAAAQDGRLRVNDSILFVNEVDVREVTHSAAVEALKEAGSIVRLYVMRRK

PTPN3, P26045 = target: PTPN3, P26045
Chain of PTPN3, P26045 (P26045 505-587): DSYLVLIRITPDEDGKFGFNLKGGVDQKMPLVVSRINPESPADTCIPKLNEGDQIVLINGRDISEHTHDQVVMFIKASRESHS

IL16_3, Q14005 = target: IL16_3, Q14005
Chain of IL16_3, Q14005 (Q14005 1107-1207): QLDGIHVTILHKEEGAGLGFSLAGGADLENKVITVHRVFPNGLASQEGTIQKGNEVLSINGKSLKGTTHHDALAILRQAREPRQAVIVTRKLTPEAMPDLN

LDB3, O75112 = target: LDB3, O75112
Chain of LDB3, O75112 (O75112 1-94): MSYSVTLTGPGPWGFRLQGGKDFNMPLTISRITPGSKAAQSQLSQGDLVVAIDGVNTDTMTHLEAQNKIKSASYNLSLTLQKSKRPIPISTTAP

Inadl_8, Q8NI35 = target: Inadl_8, Q8NI35
Chain of Inadl_8, Q8NI35 (Q8NI35 1425-1530): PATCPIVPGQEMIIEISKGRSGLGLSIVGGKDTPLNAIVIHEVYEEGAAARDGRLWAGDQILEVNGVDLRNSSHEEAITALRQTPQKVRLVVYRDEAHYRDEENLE

Chain of LIMK2, P53671 (P53671 143-248): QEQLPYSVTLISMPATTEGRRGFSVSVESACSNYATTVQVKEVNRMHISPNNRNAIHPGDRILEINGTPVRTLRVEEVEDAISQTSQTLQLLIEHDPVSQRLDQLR
Chain of GRIP2_4, Q9C0E4 (Q9C0E4 446-548): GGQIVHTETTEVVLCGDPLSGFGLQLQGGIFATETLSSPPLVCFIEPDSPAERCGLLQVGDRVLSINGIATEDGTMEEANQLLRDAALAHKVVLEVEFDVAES

RHGSCVETSL [TMEM151B, Q8IW70] was tested, and the pKd (GRIP2_4, Q9C0E4) was “below the threshold”, the pKd (LIMK2, P53671) was “below the threshold” and the pKd (PDZD7_3, Q9H5P4) was 4.46. The pKd (GRIP2_6, Q9C0E4) was “below the threshold”, the pKd (MAGI2_4, Q86UL8) was “below the threshold” and the pKd (TJP3_3, O95049) was “below the threshold”. For the same binder, the pKd (MPP2, Q14168) was “below the threshold”, the pKd (MPDZ_12, O75970) was “below the threshold” and the pKd (TJP1_3, Q07157) was “below the threshold”. For the same binder, the pKd (MAGI3_2, Q5TCQ9) was 4.06, the pKd (LNX2_2, Q8N448) was “below the threshold” and the pKd (DFNB31_2, Q9P202) was “below the threshold”. The pKd (GRIP2_3, Q9C0E4) was “below the threshold”, the pKd (MAGI2_6, Q86UL8) was 4.16 and the pKd (CASK, O14936) was “below the threshold”. The pKd (DLG3_3, Q92796) was 4.2, the pKd (GRIP2_5, Q9C0E4) was “below the threshold” and the pKd (APBA2_2, Q99767) was “below the threshold”. The pKd (CARD11, Q9BXL7) was “below the threshold”, the pKd (FRMPD2_3, Q68DX3) was “below the threshold” and the pKd (SHANK1, Q9Y566) was 4.64. The pKd (DLG3_2, Q92796) was 4.53, the pKd (Inadl_1, Q8NI35) was “below the threshold” and the pKd (DLG4_1, P78352) was 3.98. The pKd (PTPN3, P26045) was 5, the pKd (IL16_3, Q14005) was “below the threshold” and the pKd (LDB3, O75112) was “below the threshold”. The pKd (Inadl_8, Q8NI35) was “below the threshold”.

For QSLNRMEYIV [JAG1, P78504], the pKd (GRIP2_4, Q9C0E4) was “below the threshold”, the pKd (LIMK2, P53671) was “below the threshold” and the pKd (PDZD7_3, Q9H5P4) was 3.68. For the same binder, the pKd (GRIP2_6, Q9C0E4) was 4.61, the pKd (MAGI2_4, Q86UL8) was 3.87 and the pKd (TJP3_3, O95049) was “below the threshold”. For the same binder, the pKd (MPP2, Q14168) was “below the threshold”, the pKd (MPDZ_12, O75970) was “below the threshold” and the pKd (TJP1_3, Q07157) was “below the threshold”. The pKd (MAGI3_2, Q5TCQ9) was 4.73, the pKd (LNX2_2, Q8N448) was 5.4 and the pKd (DFNB31_2, Q9P202) was “below the threshold”. The pKd (GRIP2_3, Q9C0E4) was “below the threshold”, the pKd (MAGI2_6, Q86UL8) was “below the threshold” and the pKd (CASK, O14936) was “below the threshold”. The pKd (DLG3_3, Q92796) was “below the threshold”, the pKd (GRIP2_5, Q9C0E4) was “below the threshold” and the pKd (APBA2_2, Q99767) was “below the threshold”. The pKd (CARD11, Q9BXL7) was “below the threshold”, the pKd (FRMPD2_3, Q68DX3) was 4.36 and the pKd (SHANK1, Q9Y566) was “below the threshold”. The pKd (DLG3_2, Q92796) was 4.45, the pKd (Inadl_1, Q8NI35) was 3.69 and the pKd (DLG4_1, P78352) was “below the threshold”. For the same binder, the pKd (PTPN3, P26045) was “below the threshold”, the pKd (IL16_3, Q14005) was “below the threshold” and the pKd (LDB3, O75112) was “below the threshold”. The pKd (Inadl_8, Q8NI35) was “below the threshold”.

In the case of VRNLPESEEL [MYOZ3, Q8TDC0], the pKd (GRIP2_4, Q9C0E4) is reported as “below the threshold”, the pKd (LIMK2, P53671) is reported as “below the threshold” and the pKd (PDZD7_3, Q9H5P4) is reported as 3.74. The pKd (GRIP2_6, Q9C0E4) was “below the threshold”, the pKd (MAGI2_4, Q86UL8) was “below the threshold” and the pKd (TJP3_3, O95049) was “below the threshold”. For the same binder, the pKd (MPP2, Q14168) was “below the threshold”, the pKd (MPDZ_12, O75970) was “below the threshold” and the pKd (TJP1_3, Q07157) was “below the threshold”. For the same binder, the pKd (MAGI3_2, Q5TCQ9) was “below the threshold”, the pKd (LNX2_2, Q8N448) was “below the threshold” and the pKd (DFNB31_2, Q9P202) was “below the threshold”. The pKd (GRIP2_3, Q9C0E4) was “below the threshold”, the pKd (MAGI2_6, Q86UL8) was 4.01 and the pKd (CASK, O14936) was “below the threshold”. The pKd (DLG3_3, Q92796) was “below the threshold”, the pKd (GRIP2_5, Q9C0E4) was “below the threshold” and the pKd (APBA2_2, Q99767) was “below the threshold”. The pKd (CARD11, Q9BXL7) was “below the threshold”, the pKd (FRMPD2_3, Q68DX3) was “below the threshold” and the pKd (SHANK1, Q9Y566) was “below the threshold”. The pKd (DLG3_2, Q92796) was “below the threshold”, the pKd (Inadl_1, Q8NI35) was “below the threshold” and the pKd (DLG4_1, P78352) was “below the threshold”. The pKd (PTPN3, P26045) was 3.91, the pKd (IL16_3, Q14005) was “below the threshold” and the pKd (LDB3, O75112) was 5.19. The pKd (Inadl_8, Q8NI35) was “below the threshold”.

GNSVLKSTQF [SLC22A12, Q96S37] was tested, and the pKd (GRIP2_4, Q9C0E4) was “below the threshold”, the pKd (LIMK2, P53671) was “below the threshold” and the pKd (PDZD7_3, Q9H5P4) was 4. For the same binder, the pKd (GRIP2_6, Q9C0E4) was “below the threshold”, the pKd (MAGI2_4, Q86UL8) was 3.79 and the pKd (TJP3_3, O95049) was “below the threshold”. The pKd (MPP2, Q14168) was “below the threshold”, the pKd (MPDZ_12, O75970) was “below the threshold” and the pKd (TJP1_3, Q07157) was “below the threshold”. For the same binder, the pKd (MAGI3_2, Q5TCQ9) was “below the threshold”, the pKd (LNX2_2, Q8N448) was “below the threshold” and the pKd (DFNB31_2, Q9P202) was “below the threshold”. For the same binder, the pKd (GRIP2_3, Q9C0E4) was “below the threshold”, the pKd (MAGI2_6, Q86UL8) was “below the threshold” and the pKd (CASK, O14936) was “below the threshold”. The pKd (DLG3_3, Q92796) was “below the threshold”, the pKd (GRIP2_5, Q9C0E4) was “below the threshold” and the pKd (APBA2_2, Q99767) was “below the threshold”. For the same binder, the pKd (CARD11, Q9BXL7) was “below the threshold”, the pKd (FRMPD2_3, Q68DX3) was “below the threshold” and the pKd (SHANK1, Q9Y566) was 4.96. The pKd (DLG3_2, Q92796) was 4.21, the pKd (Inadl_1, Q8NI35) was “below the threshold” and the pKd (DLG4_1, P78352) was “below the threshold”. The pKd (PTPN3, P26045) was 4.59, the pKd (IL16_3, Q14005) was “below the threshold” and the pKd (LDB3, O75112) was “below the threshold”. For the same binder, the pKd (Inadl_8, Q8NI35) was “below the threshold”.
